Starred links: 1 amine or outer side, 2 acyl side, 3 side chain; linkers in the order of their positions; H or OH if unused. Non-standard residues stand in square brackets, D forms with d. Groups on a side chain read outwards from the residue. No end group written: not given here. *: point of attachment. γGlu = O=C(O)[C@H](CCC(=O)[*:2])N[*:1]; Palmitoyl = CCCCCCCCCCCCCCCC(=O)*; Aib = CC(C)(N)C(=O)O

Holding throughout (experiment): cell-based or functional assay
Test [1] concerns the target human corticotropin-releasing factor 2α (CRF2α receptor) (human), Q13324.
Test [2] deals with human corticotropin-releasing factor 2α receptor (CRF2α receptor) (human), Q13324.
For test [3], the target named is T1, CRF1R receptor (anti-target) (UniProt P34998 24-415, limits assumed).
T1 sequence (looked up): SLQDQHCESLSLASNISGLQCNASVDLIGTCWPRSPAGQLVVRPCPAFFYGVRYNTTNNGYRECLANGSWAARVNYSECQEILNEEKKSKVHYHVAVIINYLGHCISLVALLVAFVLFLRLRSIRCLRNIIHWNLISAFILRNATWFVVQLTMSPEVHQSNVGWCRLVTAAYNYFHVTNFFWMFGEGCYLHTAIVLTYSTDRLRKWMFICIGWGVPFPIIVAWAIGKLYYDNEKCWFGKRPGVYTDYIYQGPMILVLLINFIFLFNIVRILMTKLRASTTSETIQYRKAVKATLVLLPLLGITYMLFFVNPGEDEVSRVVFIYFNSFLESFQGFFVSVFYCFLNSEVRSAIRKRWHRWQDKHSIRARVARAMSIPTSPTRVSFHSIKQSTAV

Chain of human corticotropin-releasing factor 2α (CRF2α receptor) (human), Q13324 (Q13324 20-411): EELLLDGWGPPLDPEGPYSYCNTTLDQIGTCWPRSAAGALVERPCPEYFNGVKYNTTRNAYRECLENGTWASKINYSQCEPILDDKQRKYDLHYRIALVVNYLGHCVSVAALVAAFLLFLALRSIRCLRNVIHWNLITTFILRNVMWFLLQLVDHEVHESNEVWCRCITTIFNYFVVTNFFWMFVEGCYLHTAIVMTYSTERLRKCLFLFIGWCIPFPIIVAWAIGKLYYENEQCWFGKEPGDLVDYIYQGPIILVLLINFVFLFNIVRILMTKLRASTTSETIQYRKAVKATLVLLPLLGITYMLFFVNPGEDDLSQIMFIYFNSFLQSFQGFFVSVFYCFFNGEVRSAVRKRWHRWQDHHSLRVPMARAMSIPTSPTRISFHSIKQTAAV
Chain of human corticotropin-releasing factor 2α receptor (CRF2α receptor) (human), Q13324 (Q13324 20-411): as above

B1: peptide of SEQ ID NO: 209 (peptide)
peptide: IVLSLD[dV]PIKLK([γGlu-Palmitoyl])QILLKQERQKK[Aib]RQKAEKNKQILAQV-NH2
modifications: N-terminus assumed
SMILES: CCCCCCCCCCCCCCCC(=O)N[C@@H](CCC(=O)NCCCC[C@H](NC(=O)[C@H](CC(C)C)NC(=O)[C@H](CCCCN)NC(=O)[C@@H](NC(=O)[C@@H]1CCCN1C(=O)[C@H](NC(=O)[C@H](CC(=O)O)NC(=O)[C@H](CC(C)C)NC(=O)[C@H](CO)NC(=O)[C@H](CC(C)C)NC(=O)[C@@H](NC(=O)[C@@H](N)[C@@H](C)CC)C(C)C)C(C)C)[C@@H](C)CC)C(=O)N[C@@H](CCC(N)=O)C(=O)N[C@H](C(=O)N[C@@H](CC(C)C)C(=O)N[C@@H](CC(C)C)C(=O)N[C@@H](CCCCN)C(=O)N[C@@H](CCC(N)=O)C(=O)N[C@@H](CCC(=O)O)C(=O)N[C@@H](CCCNC(=N)N)C(=O)N[C@@H](CCC(N)=O)C(=O)N[C@@H](CCCCN)C(=O)N[C@@H](CCCCN)C(=O)NC(C)(C)C(=O)N[C@@H](CCCNC(=N)N)C(=O)N[C@@H](CCC(N)=O)C(=O)N[C@@H](CCCCN)C(=O)N[C@@H](C)C(=O)N[C@@H](CCC(=O)O)C(=O)N[C@@H](CCCCN)C(=O)N[C@@H](CC(N)=O)C(=O)N[C@@H](CCCCN)C(=O)N[C@@H](CCC(N)=O)C(=O)N[C@H](C(=O)N[C@@H](CC(C)C)C(=O)N[C@@H](C)C(=O)N[C@@H](CCC(N)=O)C(=O)N[C@H](C(N)=O)C(C)C)[C@@H](C)CC)[C@@H](C)CC)C(=O)O
With B1, the EC50 [nM], 0% HSA (cAMP, HTRF) in test [1] is 8.62 nM. Also, the CRF2 EC50 (cAMP, HTRF) in test [2] is 8.62 nM. Further, in test [3], the “CRF1/CRF2 ratio (of EC50)” value was 3 and the “CRF1 EC50 (cAMP, HTRF)” value stood at 21.7 nM.

B2: peptide of SEQ ID NO: 212 (peptide)
peptide: IVLSLD[dV]PIKLK([γGlu-Palmitoyl])QILLKQERQKKQREQAEKNKQILEQV-NH2
modifications: N-terminus assumed
SMILES: CCCCCCCCCCCCCCCC(=O)N[C@@H](CCC(=O)NCCCC[C@H](NC(=O)[C@H](CC(C)C)NC(=O)[C@H](CCCCN)NC(=O)[C@@H](NC(=O)[C@@H]1CCCN1C(=O)[C@H](NC(=O)[C@H](CC(=O)O)NC(=O)[C@H](CC(C)C)NC(=O)[C@H](CO)NC(=O)[C@H](CC(C)C)NC(=O)[C@@H](NC(=O)[C@@H](N)[C@@H](C)CC)C(C)C)C(C)C)[C@@H](C)CC)C(=O)N[C@@H](CCC(N)=O)C(=O)N[C@H](C(=O)N[C@@H](CC(C)C)C(=O)N[C@@H](CC(C)C)C(=O)N[C@@H](CCCCN)C(=O)N[C@@H](CCC(N)=O)C(=O)N[C@@H](CCC(=O)O)C(=O)N[C@@H](CCCNC(=N)N)C(=O)N[C@@H](CCC(N)=O)C(=O)N[C@@H](CCCCN)C(=O)N[C@@H](CCCCN)C(=O)N[C@@H](CCC(N)=O)C(=O)N[C@@H](CCCNC(=N)N)C(=O)N[C@@H](CCC(=O)O)C(=O)N[C@@H](CCC(N)=O)C(=O)N[C@@H](C)C(=O)N[C@@H](CCC(=O)O)C(=O)N[C@@H](CCCCN)C(=O)N[C@@H](CC(N)=O)C(=O)N[C@@H](CCCCN)C(=O)N[C@@H](CCC(N)=O)C(=O)N[C@H](C(=O)N[C@@H](CC(C)C)C(=O)N[C@@H](CCC(=O)O)C(=O)N[C@@H](CCC(N)=O)C(=O)N[C@H](C(N)=O)C(C)C)[C@@H](C)CC)[C@@H](C)CC)C(=O)O
B2: in test [1], the EC50 [nM], 0% HSA (cAMP, HTRF) was 1.23 nM. Moreover, in test [2], the CRF2 EC50 (cAMP, HTRF) amounted to 1.23 nM. In test [3], the “CRF1/CRF2 ratio (of EC50)” value turned out to be 1 and the “CRF1 EC50 (cAMP, HTRF)” value stood at 0.9 nM.

B3: peptide of SEQ ID NO: 207 (peptide)
peptide: IVLSLD[dV]PIGLK([γGlu-Palmitoyl])QILLKQERQKK[Aib]REQAETNKRILERV-NH2
modifications: N-terminus assumed
SMILES: CCCCCCCCCCCCCCCC(=O)N[C@@H](CCC(=O)NCCCC[C@H](NC(=O)[C@H](CC(C)C)NC(=O)CNC(=O)[C@@H](NC(=O)[C@@H]1CCCN1C(=O)[C@H](NC(=O)[C@H](CC(=O)O)NC(=O)[C@H](CC(C)C)NC(=O)[C@H](CO)NC(=O)[C@H](CC(C)C)NC(=O)[C@@H](NC(=O)[C@@H](N)[C@@H](C)CC)C(C)C)C(C)C)[C@@H](C)CC)C(=O)N[C@@H](CCC(N)=O)C(=O)N[C@H](C(=O)N[C@@H](CC(C)C)C(=O)N[C@@H](CC(C)C)C(=O)N[C@@H](CCCCN)C(=O)N[C@@H](CCC(N)=O)C(=O)N[C@@H](CCC(=O)O)C(=O)N[C@@H](CCCNC(=N)N)C(=O)N[C@@H](CCC(N)=O)C(=O)N[C@@H](CCCCN)C(=O)N[C@@H](CCCCN)C(=O)NC(C)(C)C(=O)N[C@@H](CCCNC(=N)N)C(=O)N[C@@H](CCC(=O)O)C(=O)N[C@@H](CCC(N)=O)C(=O)N[C@@H](C)C(=O)N[C@@H](CCC(=O)O)C(=O)N[C@H](C(=O)N[C@@H](CC(N)=O)C(=O)N[C@@H](CCCCN)C(=O)N[C@@H](CCCNC(=N)N)C(=O)N[C@H](C(=O)N[C@@H](CC(C)C)C(=O)N[C@@H](CCC(=O)O)C(=O)N[C@@H](CCCNC(=N)N)C(=O)N[C@H](C(N)=O)C(C)C)[C@@H](C)CC)[C@@H](C)O)[C@@H](C)CC)C(=O)O
In test [1], B3 gave an EC50 [nM], 0% HSA (cAMP, HTRF) of 0.68 nM. In test [2], this molecule had a CRF2 EC50 (cAMP, HTRF) of 0.68 nM. In test [3], the “CRF1/CRF2 ratio (of EC50)” value is 6 and the “CRF1 EC50 (cAMP, HTRF)” value is 4.18 nM.

B4: peptide of SEQ ID NO: 208 (peptide)
peptide: IVLSLD[dV]PIKLK([γGlu-Palmitoyl])QILLKQERQK[Aib]QRQQAEKNKQILAQV-NH2
modifications: N-terminus assumed
SMILES: CCCCCCCCCCCCCCCC(=O)N[C@@H](CCC(=O)NCCCC[C@H](NC(=O)[C@H](CC(C)C)NC(=O)[C@H](CCCCN)NC(=O)[C@@H](NC(=O)[C@@H]1CCCN1C(=O)[C@H](NC(=O)[C@H](CC(=O)O)NC(=O)[C@H](CC(C)C)NC(=O)[C@H](CO)NC(=O)[C@H](CC(C)C)NC(=O)[C@@H](NC(=O)[C@@H](N)[C@@H](C)CC)C(C)C)C(C)C)[C@@H](C)CC)C(=O)N[C@@H](CCC(N)=O)C(=O)N[C@H](C(=O)N[C@@H](CC(C)C)C(=O)N[C@@H](CC(C)C)C(=O)N[C@@H](CCCCN)C(=O)N[C@@H](CCC(N)=O)C(=O)N[C@@H](CCC(=O)O)C(=O)N[C@@H](CCCNC(=N)N)C(=O)N[C@@H](CCC(N)=O)C(=O)N[C@@H](CCCCN)C(=O)NC(C)(C)C(=O)N[C@@H](CCC(N)=O)C(=O)N[C@@H](CCCNC(=N)N)C(=O)N[C@@H](CCC(N)=O)C(=O)N[C@@H](CCC(N)=O)C(=O)N[C@@H](C)C(=O)N[C@@H](CCC(=O)O)C(=O)N[C@@H](CCCCN)C(=O)N[C@@H](CC(N)=O)C(=O)N[C@@H](CCCCN)C(=O)N[C@@H](CCC(N)=O)C(=O)N[C@H](C(=O)N[C@@H](CC(C)C)C(=O)N[C@@H](C)C(=O)N[C@@H](CCC(N)=O)C(=O)N[C@H](C(N)=O)C(C)C)[C@@H](C)CC)[C@@H](C)CC)C(=O)O
As to B4, in test [1], the EC50 [nM], 0% HSA (cAMP, HTRF) came out at 0.9 nM. This molecule returned a CRF2 EC50 (cAMP, HTRF) in test [2] of 0.9 nM. Also, in test [3], the “CRF1/CRF2 ratio (of EC50)” value worked out at 2 and the “CRF1 EC50 (cAMP, HTRF)” value is 1.43 nM.

B5: peptide of SEQ ID NO: 214 (peptide)
peptide: IVLSLD[dV]PIKLK([γGlu-Palmitoyl])QILLKQERQKKQRQQAEKNKQILAQV-NH2
modifications: N-terminus assumed
SMILES: CCCCCCCCCCCCCCCC(=O)N[C@@H](CCC(=O)NCCCC[C@H](NC(=O)[C@H](CC(C)C)NC(=O)[C@H](CCCCN)NC(=O)[C@@H](NC(=O)[C@@H]1CCCN1C(=O)[C@H](NC(=O)[C@H](CC(=O)O)NC(=O)[C@H](CC(C)C)NC(=O)[C@H](CO)NC(=O)[C@H](CC(C)C)NC(=O)[C@@H](NC(=O)[C@@H](N)[C@@H](C)CC)C(C)C)C(C)C)[C@@H](C)CC)C(=O)N[C@@H](CCC(N)=O)C(=O)N[C@H](C(=O)N[C@@H](CC(C)C)C(=O)N[C@@H](CC(C)C)C(=O)N[C@@H](CCCCN)C(=O)N[C@@H](CCC(N)=O)C(=O)N[C@@H](CCC(=O)O)C(=O)N[C@@H](CCCNC(=N)N)C(=O)N[C@@H](CCC(N)=O)C(=O)N[C@@H](CCCCN)C(=O)N[C@@H](CCCCN)C(=O)N[C@@H](CCC(N)=O)C(=O)N[C@@H](CCCNC(=N)N)C(=O)N[C@@H](CCC(N)=O)C(=O)N[C@@H](CCC(N)=O)C(=O)N[C@@H](C)C(=O)N[C@@H](CCC(=O)O)C(=O)N[C@@H](CCCCN)C(=O)N[C@@H](CC(N)=O)C(=O)N[C@@H](CCCCN)C(=O)N[C@@H](CCC(N)=O)C(=O)N[C@H](C(=O)N[C@@H](CC(C)C)C(=O)N[C@@H](C)C(=O)N[C@@H](CCC(N)=O)C(=O)N[C@H](C(N)=O)C(C)C)[C@@H](C)CC)[C@@H](C)CC)C(=O)O
B5: the EC50 [nM], 0% HSA (cAMP, HTRF) in test [1] is 4.15 nM. The molecule further gave a CRF2 EC50 (cAMP, HTRF) in test [2] of 4.15 nM. In addition, in test [3], the “CRF1/CRF2 ratio (of EC50)” value amounted to 1 and the “CRF1 EC50 (cAMP, HTRF)” value turned out to be 4.27 nM.

These data come from patent US12679878B2, “CRF2 receptor agonists and their use in therapy” (SANOFI, priority 2020, dated 2026).
